Among the data in patent US20250011363A1, “OPTIMIZED SHORTENED PEPTIDE THAT BINDS TO ACETYLCHOLINE RECEPTOR, AND USE THEREOF” (SKINMED CO., LTD., priority 2021, published 2025) are Binding affinity (RU) values, retold here.

Test [1] deals with acetylcholine receptor. Put plainly: SPR, AchR immobilised on CM5 chip, peptide 10 uM.
Test [2] has as its target acetylcholine receptor. Put plainly: SPR, receptor immobilized, peptide 10 uM. A general note: In SPR one partner is held on a chip, and binding of the other changes the refractive index at the surface.

Take RRYWEK [6mer-1-979]: in the test with acetylcholine receptor [1], the Binding affinity (RU) was 42 RU.
The same measure, in the same setting: with RRNSWK [6mer-1-966] the figure was 22 RU.
Same read-out and setting: under KKESDK [6mer-1-984] stands 33 RU.
Same read-out and setting: under RRTEFK [6mer-1-987] stands 34 RU; under RKDHWR [6mer-1-969], 33 RU.
In the case of RHTVK [5mer-775], in the test with acetylcholine receptor [2], the Binding affinity (RU) was 23 RU.
On to RTCDR [5mer-774], for which, in the test with acetylcholine receptor [2], the Binding affinity (RU) is 25 RU.
In the test with acetylcholine receptor [1], RRDHVK [6mer-1-973] displayed a Binding affinity (RU) of 25 RU.
Still for that read-out and setting: with RRCEPR [6mer-1-946] the figure was 31 RU.
KDWPK [5mer-1072] gave a Binding affinity (RU) in the test with acetylcholine receptor [2] of 32 RU.
Same read-out and setting: with RDEAK [5mer-1073] the figure was 29 RU.
Take RRMMVR [6mer-1-942]: the Binding affinity (RU) with acetylcholine receptor [1] was 37 RU.
Molecule RKPEDR [6mer-1-940] had a Binding affinity (RU) with acetylcholine receptor [1] of 29 RU.
Still for that read-out and setting: under RKEMIK [6mer-1-976] stands 40 RU.
On the same count and under the same terms, under RRPCFR [6mer-1-977] stands 43 RU; under RKFTVR [6mer-1-948], 24 RU; under KKAEEK [6mer-1-986], 22 RU.
On the same count and under the same terms, under RKASIK [6mer-1-975] stands 22 RU; under KRAHDK [6mer-1-993], 26 RU; under RKECFK [6mer-1-955], 23 RU.
For RPCPR [5mer-1074], the Binding affinity (RU) with acetylcholine receptor [2] was determined as 17 RU.
KKAKGR [6mer-1-954]: in the test with acetylcholine receptor [1], the Binding affinity (RU) was determined as 41 RU.
On to RRCCAR [6mer-1-970], for which the Binding affinity (RU) with acetylcholine receptor [1] turned out to be 38 RU.
On the same count and under the same terms, under KKPPDK [6mer-1-957] stands 43 RU; under RRKSHK [6mer-1-978], 43 RU.
The same measure, in the same setting: under RRPWNR [6mer-1-933] stands 28 RU; under KRTNGK [6mer-1-953], 26 RU.
In the test with acetylcholine receptor [1], KKIAWK [6mer-1-938] had a Binding affinity (RU) of 28 RU.
For RPNMR [5mer-773], in the test with acetylcholine receptor [2], the Binding affinity (RU) came to 25 RU.
Regarding RREDFR [6mer-1-968], the Binding affinity (RU) with acetylcholine receptor [1] came out at 39 RU.
On the same count and under the same terms, with KRPPGK [6mer-1-934] the figure was 39 RU.
On the same count and under the same terms, under RKTPKK [6mer-1-941] stands 29 RU; under KRKSNK [6mer-1-956], 34 RU.
On the same count and under the same terms, under RKAMDK [6mer-1-951] stands 29 RU; under KRIWDK [6mer-1-965], 36 RU.
Turning to RRHTHK [6mer-1-972], the Binding affinity (RU) with acetylcholine receptor [1] amounted to 43 RU.
On the same count and under the same terms, with KRYAGR [6mer-1-958] the figure was 43 RU; with KRPHKK [6mer-1-983], 38 RU.
In the case of KRCHHR [6mer-1-995], the Binding affinity (RU) with acetylcholine receptor [1] amounted to 33 RU.
Still for that read-out and setting: with KRYPDR [6mer-1-988] the figure was 24 RU; with RRFTER [6mer-1-990], 40 RU; with RKPAGK [6mer-1-944], 25 RU.
On the same count and under the same terms, with RKETDR [6mer-1-936] the figure was 36 RU; with RKIEMK [6mer-1-971], 32 RU; with RKFKNK [6mer-1-964], 42 RU.
Regarding RKICAK [6mer-1-980], the Binding affinity (RU) with acetylcholine receptor [1] was 33 RU.
The same measure, in the same setting: with RRTWAR [6mer-1-961] the figure was 122 RU; with KRFEFK [6mer-1-932], 38 RU; with RKTSIK [6mer-1-945], 31 RU.
On the same count and under the same terms, with KRNDFK [6mer-1-939] the figure was 41 RU; with RKDDKK [6mer-1-981], 27 RU; with KKIWFR [6mer-1-959], 36 RU.
KRKSER [6mer-1-985] gave a Binding affinity (RU) in the test with acetylcholine receptor [1] of 22 RU.
Still for that read-out and setting: under KKNCDK [6mer-1-962] stands 42 RU; under KRATVR [6mer-1-989], 27 RU.
In turn, RRTEDR [6mer-1-967] came in with a Binding affinity (RU) in the test with acetylcholine receptor [1] of 24 RU.
For KYWFK [5mer-772], the Binding affinity (RU) in the test with acetylcholine receptor [2] worked out at 11 RU.
Consider RKAHDK [6mer-1-991], for which the Binding affinity (RU) with acetylcholine receptor [1] was determined as 25 RU.
As for KKHEFR [6mer-1-994], in the test with acetylcholine receptor [1], the Binding affinity (RU) stood at 37 RU.
On the same count and under the same terms, under KRCPDR [6mer-1-982] stands 35 RU; under KRHDKK [6mer-1-952], 28 RU.
Turning to RRCTAK [6mer-1-992], the Binding affinity (RU) with acetylcholine receptor [1] came to 28 RU.
Same read-out and setting: with RKKDIK [6mer-1-935] the figure was 40 RU; with RKEDKR [6mer-1-950], 29 RU.
The same measure, in the same setting: under KKCPFR [6mer-1-960] stands 34 RU; under RREEDK [6mer-1-963], 29 RU.
Still for that read-out and setting: with RKEMPR [6mer-1-949] the figure was 37 RU; with KKEHDK [6mer-1-943], 43 RU; with RKPTNR [6mer-1-937], 34 RU.
In the test with acetylcholine receptor [1], RKPAHK [6mer-1-974] displayed a Binding affinity (RU) of 27 RU.
Same read-out and setting: with KRTKGR [6mer-1-947] the figure was 31 RU.
